One molecule from paper PMC4227796 can be followed below.

For one data set, the target named is T1, RecQL4_N388 (Homo sapiens, UniProt O94761 1-388).
T1 sequence: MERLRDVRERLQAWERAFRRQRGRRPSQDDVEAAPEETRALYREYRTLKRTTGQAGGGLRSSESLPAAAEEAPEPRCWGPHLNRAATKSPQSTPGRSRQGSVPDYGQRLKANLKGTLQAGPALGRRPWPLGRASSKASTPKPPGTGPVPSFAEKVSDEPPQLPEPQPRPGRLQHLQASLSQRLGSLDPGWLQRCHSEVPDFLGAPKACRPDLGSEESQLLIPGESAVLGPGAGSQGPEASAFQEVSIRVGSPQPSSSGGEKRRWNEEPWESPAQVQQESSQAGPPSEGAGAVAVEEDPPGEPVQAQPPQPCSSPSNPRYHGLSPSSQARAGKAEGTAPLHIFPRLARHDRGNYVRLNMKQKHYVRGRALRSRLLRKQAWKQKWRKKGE
Nature of the data set: EMSA.

For the next data set, the target named is T2, RecQL4_FL (Homo sapiens, UniProt O94761 1-1208).
T2 sequence: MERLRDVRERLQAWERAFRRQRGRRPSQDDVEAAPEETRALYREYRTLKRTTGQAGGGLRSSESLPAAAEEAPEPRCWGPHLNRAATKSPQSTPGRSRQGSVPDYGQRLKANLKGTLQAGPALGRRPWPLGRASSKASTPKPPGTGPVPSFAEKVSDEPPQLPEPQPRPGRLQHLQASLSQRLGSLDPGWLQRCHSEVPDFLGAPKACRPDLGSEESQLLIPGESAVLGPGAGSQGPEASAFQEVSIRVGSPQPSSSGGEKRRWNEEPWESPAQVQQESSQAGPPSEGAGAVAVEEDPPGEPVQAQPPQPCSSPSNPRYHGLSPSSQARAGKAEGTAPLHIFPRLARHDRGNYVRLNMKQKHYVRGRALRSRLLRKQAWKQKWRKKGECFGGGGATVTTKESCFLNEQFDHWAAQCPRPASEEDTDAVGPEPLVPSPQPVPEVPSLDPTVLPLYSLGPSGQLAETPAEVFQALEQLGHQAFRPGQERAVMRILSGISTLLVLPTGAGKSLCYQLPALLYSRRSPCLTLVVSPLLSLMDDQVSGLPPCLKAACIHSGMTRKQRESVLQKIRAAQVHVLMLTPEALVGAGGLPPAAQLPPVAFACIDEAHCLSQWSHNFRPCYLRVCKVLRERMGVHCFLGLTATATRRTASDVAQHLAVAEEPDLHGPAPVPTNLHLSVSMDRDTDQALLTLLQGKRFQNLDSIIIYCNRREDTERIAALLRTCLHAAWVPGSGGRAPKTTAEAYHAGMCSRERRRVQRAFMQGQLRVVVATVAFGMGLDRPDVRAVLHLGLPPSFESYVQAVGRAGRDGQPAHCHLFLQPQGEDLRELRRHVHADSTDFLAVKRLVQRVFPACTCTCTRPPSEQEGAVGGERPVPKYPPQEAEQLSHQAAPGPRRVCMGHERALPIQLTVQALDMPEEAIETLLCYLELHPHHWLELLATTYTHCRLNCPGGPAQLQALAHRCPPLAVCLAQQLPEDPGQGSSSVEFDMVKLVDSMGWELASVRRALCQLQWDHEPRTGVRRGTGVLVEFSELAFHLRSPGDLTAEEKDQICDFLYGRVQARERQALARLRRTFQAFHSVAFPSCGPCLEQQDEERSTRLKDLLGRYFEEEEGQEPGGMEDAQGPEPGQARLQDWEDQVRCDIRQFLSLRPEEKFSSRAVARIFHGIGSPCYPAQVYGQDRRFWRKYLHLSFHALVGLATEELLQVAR
Put plainly: EMSA. Background: A gel shift assay detects complexes by their altered migration in electrophoresis.

Take GCAGAGGCCCGGCACGAGCTTCCCC (ssDNA) [LB2_GC]: the binding result with RecQL4_N388 and with RecQL4_FL was “binds” each time.
